Test results as given in the supplement of paper PMC5998384.

Columns and labels:
HeLa Kyoto [1] = assay: solubility change mitosis vs G1/S (difference of NP-40 vs SDS log2 ratios) (log2 ratio difference); higher = more soluble in mitosis
HeLa Kyoto [2] = assay: solubility in G1/S (NP-40 vs SDS abundance) (log2 ratio); higher = more soluble; conditions: cell cycle stage: G1/S
HeLa Kyoto [3] = assay: thermal stability score vs G1/S (z-score of summed log2 fold changes over temperatures); higher = more thermally stable than in G1/S
HeLa Kyoto [4] = assay: melting temperature (median over replicates), in situ; higher = more thermally stable; conditions: cell cycle stage: mitosis
[5] = cell cycle stage: early G1 (4.5 h after nocodazole release)
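Wherever melting temperature (median over replicates), in situ is given: HeLa Kyoto cells synchronized by double thymidine or nocodazole block, proteins quantified by TMT10plex mass spectrometry, three independent biological replicates.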
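Wherever solubility change mitosis vs G1/S (difference of NP-40 vs SDS log2 ratios) is given: synchronized HeLa Kyoto cells (double thymidine block for G1/S, nocodazole release for mitosis), protein amounts in NP-40 versus SDS lysates quantified by mass spectrometry, three biological replicates.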
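Wherever solubility in G1/S (NP-40 vs SDS abundance) is given: HeLa Kyoto cells arrested at G1/S by double thymidine block, proteins quantified by TMT10plex mass spectrometry in mild NP-40 versus SDS extracts, three biological replicates.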
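Wherever thermal stability score vs G1/S (z-score of summed log2 fold changes over temperatures) is given: synchronized HeLa Kyoto cells, proteins quantified by TMT10plex mass spectrometry, three biological replicates, mitosis taken 0.5 h after nocodazole release, G1/S directly after double thymidine block.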

Chain of ERGIC3 (chain, as listed by the source): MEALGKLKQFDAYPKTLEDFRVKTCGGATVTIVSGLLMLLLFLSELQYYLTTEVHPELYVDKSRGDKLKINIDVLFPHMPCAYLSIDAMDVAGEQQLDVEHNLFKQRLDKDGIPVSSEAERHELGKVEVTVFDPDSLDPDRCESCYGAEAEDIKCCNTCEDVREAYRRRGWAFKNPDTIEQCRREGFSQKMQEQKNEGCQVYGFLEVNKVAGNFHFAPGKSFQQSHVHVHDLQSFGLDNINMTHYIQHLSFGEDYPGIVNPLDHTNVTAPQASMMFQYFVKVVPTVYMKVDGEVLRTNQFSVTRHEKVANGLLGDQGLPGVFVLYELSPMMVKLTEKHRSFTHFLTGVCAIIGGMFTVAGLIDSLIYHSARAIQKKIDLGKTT
Chain of CMC2 (chain, as listed by the source): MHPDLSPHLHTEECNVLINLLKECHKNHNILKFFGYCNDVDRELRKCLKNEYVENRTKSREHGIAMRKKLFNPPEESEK
Chain of CSNK1G1 (chain, as listed by the source): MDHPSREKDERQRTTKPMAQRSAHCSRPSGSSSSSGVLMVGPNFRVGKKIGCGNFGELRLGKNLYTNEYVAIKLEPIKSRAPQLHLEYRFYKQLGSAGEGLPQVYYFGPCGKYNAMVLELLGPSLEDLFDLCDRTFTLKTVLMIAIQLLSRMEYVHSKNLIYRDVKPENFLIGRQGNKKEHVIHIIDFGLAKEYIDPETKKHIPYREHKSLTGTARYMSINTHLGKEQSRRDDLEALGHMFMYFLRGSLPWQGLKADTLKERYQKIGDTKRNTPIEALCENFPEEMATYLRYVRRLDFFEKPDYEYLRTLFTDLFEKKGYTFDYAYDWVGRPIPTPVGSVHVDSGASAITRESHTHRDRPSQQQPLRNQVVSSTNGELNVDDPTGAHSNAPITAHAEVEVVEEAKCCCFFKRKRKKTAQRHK

Substance | solubility change mitosis (log2) (HeLa Kyoto [1]) | further results
ALAS1 | 0.00951 | solubility in G1/S (log2) (HeLa Kyoto [2]): 0.132
ASNSD1 | 0.0506 | solubility in G1/S (log2) (HeLa Kyoto [2]): -0.0495
ATAD5 | 0.557 | solubility in G1/S (log2) (HeLa Kyoto [2]): -1.01
CCDC88C | -0.288 | solubility in G1/S (log2) (HeLa Kyoto [2]): -0.065
CDK5RAP2 | -0.239 | solubility in G1/S (log2) (HeLa Kyoto [2]): -0.157
CHD6 | -0.0389 | solubility in G1/S (log2) (HeLa Kyoto [2]): -0.23
CMC2 | 0.0296 | solubility in G1/S (log2) (HeLa Kyoto [2]): 0.229
CSNK1G1 | 0.0486 | solubility in G1/S (log2) (HeLa Kyoto [2]): -0.3
DNAJB5 | 0.00156 | solubility in G1/S (log2) (HeLa Kyoto [2]): 0.153
DOPEY2 | -0.106 | solubility in G1/S (log2) (HeLa Kyoto [2]): -0.255
ELL2 | 0.0626 | solubility in G1/S (log2) (HeLa Kyoto [2]): 0.0976
ERGIC3 | -0.0891 | thermal stability score (HeLa Kyoto [3]; [5]): -2.7; thermal stability score (HeLa Kyoto [3]; cell cycle stage: mitosis): -7.02
GFER | 0.192 | solubility in G1/S (log2) (HeLa Kyoto [2]): 0.733
HEATR5A | -0.116 | solubility in G1/S (log2) (HeLa Kyoto [2]): -0.0946
HELZ2 | -0.0125 | solubility in G1/S (log2) (HeLa Kyoto [2]): -0.293
MAASSSGEKEKERLGGGLGVAGGNSTRERLLSALEDLEVLSRELIEMLAISRNQKLLQAGEENQVLELLIHRDGEFQELMKLALNQGKIHHEMQVLEKEVEKRDSDIQQLQKQLKEAEQILATAVYQAKEKLKSIEKARKGAISSEEIIKYAHRISASNAVCAPLTWVPGDPRRPYPTDLEMRSGLLGQMNNPSTNGVNGHLPGDALAAGRLPDVLAPQYPWQSNDMSMNMLPPNHSSDFLLEPPGHNKENEDDVEIMSTDSSSSSSESD [MED4] | -0.0345 | thermal stability score (HeLa Kyoto [3]; [5]): -1.56; thermal stability score (HeLa Kyoto [3]; cell cycle stage: mitosis): -1.18
MFSWMGRQAGGRERAGGADAVQTVTGGLRSLYLRKVLPLEEAYRFHEFHSPALEDADFENKPMILLVGQYSTGKTTFIRYLLEQDFPGMRIGPEPTTDSFIAVMYGETEGSTPGNALVVDPKKPFRKLSRFGNAFLNRFMCSQLPNQVLKSISVIDSPGILSGEKQRISRGYDFCQVLQWFAERVDRIILLFDAHKLDISDEFSEAIKAFRGQDDKIRVVLNKADQVDTQQLMRVYGALMWSLGKVINTPEVLRVYIGSFWAQPLQNTDNRRLFEAEAQDLFRDIQSLPQKAAVRKLNDLIKRARLAKVHAYIISYLKKEMPSVFGKENKKRELISRLPEIYIQLQREYQISAGDFPEVKAMQEQLENYDFTKFHSLKPKLIEAVDNMLSNKISPLMNLISQEETSTPTQLVQGGAFDGTTEGPFNQGYGEGAKEGADEEEWVVAKDKPVYDELFYTLSPINGKISGVNAKKEMVTSKLPNSVLGKIWKLADCDCDGMLDEEEFALAKHLIKIKLDGYELPSSLPPHLVPPSHRKSLPKAD [EHD4] | – | solubility in G1/S (log2) (HeLa Kyoto [2]): 0.226; melting temperature (HeLa Kyoto [4]): 50.4 °C
MFYAHFVLSKRGPLAKIWLAAHWDKKLTKAHVFECNLESSVESIISPKVKMALRTSGHLLLGVVRIYHRKAKYLLADCNEAFIKIKMAFRPGVVDLPEENREAAYNAITLPEEFHDFDQPLPDLDDIDVAQQFSLNQSRVEEITMREEVGNISILQENDFGDFGMDDREIMREGSAFEDDDMLVSTTTSNLLLESEQSTSNLNEKINHLEYEDQYKDDNFGEGNDGGILDDKLISNNDGGIFDDPPALSEAGVMLPEQPAHDDMDEDDNVSMGGPDSPDSVDPVEPMPTMTDQTTLVPNEEEAFALEPIDITVKETKAKRKRKLIVDSVKELDSKTIRAQLSDYSDIVTTLDLAPPTKKLMMWKETGGVEKLFSLPAQPLWNNRLLKLFTRCLTPLVPEDLRKRRKGGEADNLDEFLKEFENPEVPREDQQQQHQQRDVIDEPIIEEPSRLQESVMEASRTNIDESAMPPPPPQGVKRKAGQIDPEPVMPPQQVEQMEIPPVELPPEEPPNICQLIPELELLPEKEKEKEKEKEDDEEEEDEDASGGDQDQEERRWNKRTQQMLHGLQRALAKTGAESISLLELCRNTNRKQAAAKFYSFLVLKKQQAIELTQEEPYSDIIATPGPRFHII [RAD21] | -0.0219 | thermal stability score (HeLa Kyoto [3]; [5]): -1.05; thermal stability score (HeLa Kyoto [3]; cell cycle stage: mitosis): -1.37
MPGIDKLPIEETLEDSPQTRSLLGVFEEDATAISNYMNQLYQAMHRIYDAQNELSAATHLTSKLLKEYEKQRFPLGGDDEVMSSTLQQFSKVIDELSSCHAVLSTQLADAMMFPITQFKERDLKEILTLKEVFQIASNDHDAAINRYSRLSKKRENDKVKYEVTEDVYTSRKKQHQTMMHYFCALNTLQYKKKIALLEPLLGYMQAQISFFKMGSENLNEQLEEFLANIGTSVQNVRREMDSDIETMQQTIEDLEVASDPLYVPDPDPTKFPVNRNLTRKAGYLNARNKTGLVSSTWDRQFYFTQGGNLMSQARGDVAGGLAMDIDNCSVMAVDCEDRRYCFQITSFDGKKSSILQAESKKDHEEWICTINNISKQIYLSENPEETAARVNQSALEAVTPSPSFQQRHESLRPAAGQSRPPTARTSSSGSLGSESTNLAALSLDSLVAPDTPIQFDIISPVCEDQPGQAKAFGQGGRRTNPFGESGGSTKSETEDSILHQLFIVRFLGSMEVKSDDHPDVVYETMRQILAARAIHNIFRMTESHLLVTCDCLKLIDPQTQVTRLTFPLPCVVLYATHQENKRLFGFVLRTSSGRSESNLSSVCYIFESNNEGEKICDSVGLAKQIALHAELDRRASEKQKEIERVKEKQQKELNKQKQIEKDLEEQSRLIAASSRPNQASSEGQFVVLSSSQSEESDLGEGGKKRESEA [APPL1] | – | solubility in G1/S (log2) (HeLa Kyoto [2]): 0.05; melting temperature (HeLa Kyoto [4]): 50.4 °C
MRTO4 | 0.303 | –
MSALEKSMHLGRLPSRPPLPGSGGSQSGAKMRMGPGRKRDFSPVPWSQYFESMEDVEVENETGKDTFRVYKSGSEGPVLLLLHGGGHSALSWAVFTAAIISRVQCRIVALDLRSHGETKVKNPEDLSAETMAKDVGNVVEAMYGDLPPPIMLIGHSMGGAIAVHTASSNLVPSLLGLCMIDVVEGTAMDALNSMQNFLRGRPKTFKSLENAIEWSVKSGQIRNLESARVSMVGQVKQCEGITSPEGSKSIVEGIIEEEEEDEEGSESISKRKKEDDMETKKDHPYTWRIELAKTEKYWDGWFRGLSNLFLSCPIPKLLLLAGVDRLDKDLTIGQMQGKFQMQVLPQCGHAVHEDAPDKVAEAVATFLIRHRFAEPIGGFQCVFPGC [PPME1] | 0.0133 | thermal stability score (HeLa Kyoto [3]; [5]): -0.13; thermal stability score (HeLa Kyoto [3]; cell cycle stage: mitosis): -0.609

Substance | solubility change mitosis (log2) (HeLa Kyoto [1]) | further results
PACSIN3 | 0.0183 | –
PAF1 | -0.0983 | –
PEX5 | -0.137 | –
POFUT1 | -0.148 | –
POLR2H | -0.00215 | –
POLR2I | 0.429 | –
PPIA | -0.0495 | –
PPP2R5C | -0.158 | –
PRG4 | 0.251 | –
PTDSS1 | 0.124 | –
RNF167 | -0.0145 | –
RPL7L1 | 1.18 | –
RPL8 | 0.63 | –
RPL10 | 0.638 | –
RPL10A | 0.596 | –
RPL14 | 0.811 | –
RPL17 | 0.699 | –
RPL18A | 0.618 | –
RPL26 | 0.817 | –
RPL28 | 0.852 | –
RPL37A | 0.616 | –

Substance | solubility change mitosis (log2) (HeLa Kyoto [1]) | further results
RPLP0 | 0.6 | –
RPS7 | 0.675 | –
RPS17 | 0.529 | –
RPS19 | 1.02 | –
RPS20 | 0.612 | –
RPS23 | 0.687 | –
RPS24 | 0.772 | –
RPS25 | 0.71 | –
RPS26 | 0.618 | –
RPSA | 0.449 | –
RTF1 | 0.0675 | –
SMU1 | 0.423 | –
SUPT5H | -0.0755 | –
TMEM245 | 0.113 | –
TPCN1 | -0.0955 | –
TTR | 0.336 | –
UNC119 | -0.0626 | –
WDR12 | 0.45 | –
WDR61 | -0.0946 | –
YTHDC1 | -0.0521 | –
